Tests used:
[1] = system: tracheal epithelium of rat after burn with vapors of hydrochloric acid; test: Chemical burn (HCl vapors) of the upper respiratory tract of rat; assay type: in vivo
Procedure: The therapeutic properties of recombinant peroxiredoxin Prx V1hum in treating the upper respiratory tract of rat 24 hours after a burn were tested on a group of 4 Wistar line rats having a weight of 150-200 grams. The rats were analgized with analgin (100 mg/kg weight) and placed for 10 minutes into an exsiccator saturated with HCl vapors (the exsiccator volume was 10 liters, 20 animals were used). After the chemical burn, the rats were maintained for a definite period of time (40 min, 6 hrs, 1 day, 2 days, 14 days, 30 days), then narcotized with hexenal (300 mg/kg weight), and a sample of the tracheal epithelial tissue was isolated. For histochemical investigations the isolated sample was placed into a fixing solution containing 2% of formaldehyde and 0.5% of glutaraldehyde. The tissue was dehydrated .by sequential routing through ethyl alcohol with increasing concentration (40-100%). The tissue was embedded into LR white resin. The resin was polymerized at room temperature. 0.5 em-thick sections were made on an LKB ultratome (Sweden), using glass knives. The sections were stained with a hematoxylin-eosine and analyzed under a light microscope.
Maximum degradation of the epithelium is observed 24 hours after the burn, the ciliated cells which provide the mucus flow in the trachea being almost absent. Two weeks later a partial restoration of the ciliated cells is observed. […]

[2] = system: glutamine synthetase of E.coli; conditions: DTT/Fe3+/O2 oxidative system, 3 mM activator, 10 min at 37° C.; FIG. 3
Procedure: Comparison of the protector properties of recombinant full-size Prx Vlhum with the protector properties of natural rat Prx VIrat and with the protector properties of N-terminal ΔPrx V1hum in terms of protecting glutamine synthetase of E.coli from inactivation in a model oxidative system in vitro.
For determining the activity of different types of peroxiredoxins, their ability to protect glutamine synthetase from the DTT/Fe^+3/O2 oxidative system is measured. Glutamine synthetase is isolated from cells of the E.coli DH5α strain (Streicher S. L., Tyler B., 1980) and inactivated in the presence of a Fe^3+/O2 oxidative system and a peroxiredoxin activator—in the model oxidative system generating free radicals (Kim K. et al., 1988). […] The residual activity of glutamine synthetase is assessed by adding to the sample 200 μl of a reaction mixture which comprises: ADP, 0.4 mM; glutamine, 150 mM; K—AsO4, 10 mM; NH2OH, 20 mM; MnCl2, 0.4 mM; HEPES, 100 mM, pH 7.4. […] The protector properties of peroxiredoxin for protecting glutamine synthetase of E.coli from inactivation are determined as the ratio of the remaining activity of the enzyme after the inactivation in the presence of different concentrations of peroxiredoxin to the activity of non-inactivated glutamine synthetase.

oxyhemoglobin = test: Protection of oxyhemoglobin from the action of ionizing radiation; assay type: biochemical; conditions: about 50 μg/ml added before irradiation; 10 Gy; registered at 635 nm
Text: The antiradiation properties of Prx Vlhum are investigated both in vitro, by investigating a solution of hemoglobin, and in vivo on animals. Irradiation of a solution of hemoglobin (see Example 10) leads to essential changes in its structure (appearance of peaks at 635 nm and an increase of light scattering), this being indicative of conversion of oxyhemoglobin to methemoglobin, followed by the aggregation thereof.
For checking the possibility of protecting biological macromolecules from destruction caused by ionizing radiation with the aid of peroxiredoxin, we have investigated the characteristics of irradiated oxyhemoglobin in control and in the presence of peroxiredoxin. In control we used a solution of oxyhemoglobin (0.16 D at 540 nm) in 0.1 M of Tris-HCl (pH 7.0) which was irradiated in a GUBE apparatus with the total exposure dose of 10 Gy. As the radioprotector peroxiredoxin Prx V1hum was used in different concentrations (5-100 μg/ml) in the presence of 50 μM of dithiothreitol. The formation of oxidized forms of oxyhemoglobin (methemoglobin) was registered at 635 nm, and aggregation of methemoglobin was registered at 700 nm.

[3] = Distribution of labeled peroxiredoxin in the organism after intravenous injection; assay type: in vivo, rat; conditions: 10 mg per animal, fluorescein-labeled
Procedure: For detecting the distribution of exogenous peroxiredoxin Prx VI in different tissues of the organism, a recombinant Prx V1hum labeled with fluorescein isocyanate was introduced into the rat's vein in an amount of 10 mg per animal. After definite periods of time the animals were sacrificed, the tissues of different organs were isolated, and luminescent analysis of the obtained samples was carried out. […] Thus, the method of introducing peroxiredoxin Prx VI by intravenous injection makes it possible to increase its content in almost all the tissues of the organism.

skin cuts of rats = test: Treating skin wounds (cuts) in rats; assay type: in vivo, rat; conditions: in 5 days; 0.5 mg/ml in 0.15 M NaCl, bandages changed once a day; against control; FIG. 10
Procedure: Rats were preliminarily narcotized by intraperitoneal introduction of hexenal (70 mg/kg). The animals were fixed on an operating table, and then 2-3 mm deep and 1 cm long cuts were made in the skin of both paws with the help of a razor blade. Control cuts were irrigated with physiological solution and a bactericidal plaster was applied; in the case of using peroxiredoxin, the wound was irrigated with a solution of recombinant Prx Vlhum or of its fragment ΔPrx Vlhum in 0.15 M NaCl in 0.5 mg/ml concentration, and a gauze bandage soaked with the same solutions was applied. The bandages were changed once a day.

[4] = system: tracheal epithelium of rat after application of lipopolysaccharide; test: Inflammation of rat tracheal epithelium caused by lipopolysaccharide (LPS); assay type: in vivo

B1: Prx VIhum: recombinant full-size human peroxiredoxin Prx VI, 224 amino acids (SEQ ID NO: 1), produced in E.coli (protein)
chain: MPGGLLLGDVAPNFEANTTVGRIRFHDFLGDSWGILFSHPRDFTPVCTTELGRAAKLAPEFAKRNVKLIALSIDSVEDHLAWSKDINAYNCEEPTEKLPFPIIDDRNRELAILLGMLDPAEKDEKGMPVTARVVFVFGPDKKLKLSILYPATTGRNFDEILRVVISLQLTAEKRVATPVDWKDGDSVMVLPTIPEEEAKKLFPKGVFTKELPSGKKYLRYTPQP
For B1, the “regeneration of tracheal epithelium (curative effect)” value ([1]; 14 days after burn, application started 24 hours after burn, once a day during 5 days, FIG. 7) was “almost complete regeneration of the ciliary cells of the epithelium”, the “preservation of tracheal epithelial cells (protector effect)” value ([1]; application 1 hour after the burn, epithelium 24 hours after chemical burn, FIG. 6) was “Almost complete preservation of all epithelial cells” and the “protector properties: antioxidant characteristics in protecting glutamine synthetase from inactivation” value [2] was “close to the natural rat peroxiredoxin Prx VIrat”. For the same molecule, the “concentration of oxidized forms of hemoglobin” value (oxyhemoglobin) was “lowered almost to zero”, the distribution among organs ([3]; 15 minutes after intravenous injection, luminescent analysis) was “uniformly distributes among all the organs of the rat, including the brain” and the “amount in bone marrow” value ([3]; after intravenous injection) was “small, compared with other tissues”. For the same molecule, the “healing of the wound” value (skin cuts of rats) was “almost complete healing of the wound”, the “Integrity of tracheal epithelium (according to histological data)” value ([4]; Treatment 24 hours later for 5 days and the integrity of epithelium 2 weeks later) was 80% and the “restoration of the epithelial tissue” value ([4]; after 2 weeks, single application into the trachea immediately after LPS, FIG. 9) was “almost complete restoration of the epithelial tissue”.

From patent publication US8003345B2, “Antioxidant pharmaceutical compound, method for producing polypeptide and method of cure” (Institute of Cell Biophysics Russian Academy of Sciences, priority 2002, dated 2011)
